Results from patent publication US20230212549A1 (3B PHARMACEUTICALS, published 2023).
Several values for one entry are separate records, joined by “and”; a condition that tells them apart may be missing. Identical values can stand only once. Numbered stars: 1 amine (or outer) side, 2 acyl side, 3 side chain; on linkers, the order of the positions; unused ones are H or OH. Bridge positions count the residues as written; N and C are the ends. Square brackets hold non-standard residues; d marks the D form. * marks the point of attachment. DOTA = O=C(O)CN1CCN(CC(=O)O)CCN(CC(=O)*)CCN(CC(=O)O)CC1; mXylylene = c1cc(C[*:1])cc(C[*:2])c1; Nle = CCCC[C@H](N)C(=O)O; Mpa = O=C(O)CCS

Legend:
[1] = molecular target: Recombinant human FAP (R&D systems, #3715-SE) (human, UniProt Q12884 26-760); assay: cell-based or functional assay
[2] = molecular target: T1, fibroblast activation protein (FAP) on FAP-expressing human WI-38 fibroblasts (human, UniProt Q12884 1-760); assay: competitive FACS, WI-38 cells, vs Cy5 tracer m3; C = pIC50 6.1-7.0
T1 construct: also called human FAP

Binder	pIC50 Category (Activity) [1]	pIC50 Category (FACS) [2]
{DOTA}-CPPTEFCDHFRD-NH2 (linker 1-7 via mXylylene; SMILES C[C@@H](O)[C@@H]1NC(=O)[C@@H]2CCCN2C(=O)[C@@H]2CCCN2C(=O)[C@@H](NC(=O)CN2CCN(CC(=O)O)CCN(CC(=O)O)CCN(CC(=O)O)CC2)CSCc2cccc(c2)CSC[C@@H](C(=O)N[C@@H](CC(=O)O)C(=O)N[C@@H](Cc2c[nH]cn2)C(=O)N[C@@H](Cc2ccccc2)C(=O)N[C@@H](CCCNC(=N)N)C(=O)N[C@@H](CC(=O)O)C(N)=O)NC(=O)[C@H](Cc2ccccc2)NC(=O)[C@H](CCC(=O)O)NC1=O, also called 3BP-3174) [DOTA-[Cys(3MeBn)-Pro-Pro-Thr-Glu-Phe-Cys]-Asp-His-Phe-Arg-Asp-NH2]	6.1 pIC50 and 7 pIC50	6.1 pIC50 and 7 pIC50
[Mpa]PPTQFCD-NH2 (linker 1-7 via mXylylene; SMILES C[C@@H](O)[C@@H]1NC(=O)[C@@H]2CCCN2C(=O)[C@@H]2CCCN2C(=O)CCSCc2cccc(c2)CSC[C@@H](C(=O)N[C@@H](CC(=O)O)C(N)=O)NC(=O)[C@H](Cc2ccccc2)NC(=O)[C@H](CCC(N)=O)NC1=O, also called 3BP-3419) [[3MeBn-Spa-Pro-Pro-Thr-Gln-Phe-Cys]-Asp-NH2]	6.1 pIC50 and 7 pIC50	6.1 pIC50 and 7 pIC50
Ac-MCPPTE[dF]CDHFRD-NH2 (linker 2-8 via mXylylene; SMILES CSCC[C@H](NC(C)=O)C(=O)N[C@H]1CSCc2cccc(c2)CSC[C@@H](C(=O)N[C@@H](CC(=O)O)C(=O)N[C@@H](Cc2c[nH]cn2)C(=O)N[C@@H](Cc2ccccc2)C(=O)N[C@@H](CCCNC(=N)N)C(=O)N[C@@H](CC(=O)O)C(N)=O)NC(=O)[C@@H](Cc2ccccc2)NC(=O)[C@H](CCC(=O)O)NC(=O)[C@H]([C@@H](C)O)NC(=O)[C@@H]2CCCN2C(=O)[C@@H]2CCCN2C1=O, also called 3BP-3180) [Ac-Met-[Cys(3MeBn)-Pro-Pro-Thr-Glu-phe-Cys]-Asp-His-Phe-Arg-Asp-NH2]	6.1 pIC50 and 7 pIC50	6.1 pIC50 and 7 pIC50
Ac-MC[dP]PTEFCDHFRD-NH2 (linker 2-8 via mXylylene; SMILES CSCC[C@H](NC(C)=O)C(=O)N[C@H]1CSCc2cccc(c2)CSC[C@@H](C(=O)N[C@@H](CC(=O)O)C(=O)N[C@@H](Cc2c[nH]cn2)C(=O)N[C@@H](Cc2ccccc2)C(=O)N[C@@H](CCCNC(=N)N)C(=O)N[C@@H](CC(=O)O)C(N)=O)NC(=O)[C@H](Cc2ccccc2)NC(=O)[C@H](CCC(=O)O)NC(=O)[C@H]([C@@H](C)O)NC(=O)[C@@H]2CCCN2C(=O)[C@H]2CCCN2C1=O, also called 3BP-3176) [Ac-Met-[Cys(3MeBn)-pro-Pro-Thr-Glu-Phe-Cys]-Asp-His-Phe-Arg-Asp-NH2]	6.1 pIC50 and 7 pIC50	6.1 pIC50 and 7 pIC50
{DOTA}-MCPPTEFCDHFRD-NH2 (linker 2-8 via mXylylene; SMILES CSCC[C@H](NC(=O)CN1CCN(CC(=O)O)CCN(CC(=O)O)CCN(CC(=O)O)CC1)C(=O)N[C@H]1CSCc2cccc(c2)CSC[C@@H](C(=O)N[C@@H](CC(=O)O)C(=O)N[C@@H](Cc2c[nH]cn2)C(=O)N[C@@H](Cc2ccccc2)C(=O)N[C@@H](CCCNC(=N)N)C(=O)N[C@@H](CC(=O)O)C(N)=O)NC(=O)[C@H](Cc2ccccc2)NC(=O)[C@H](CCC(=O)O)NC(=O)[C@H]([C@@H](C)O)NC(=O)[C@@H]2CCCN2C(=O)[C@@H]2CCCN2C1=O) [DOTA-Met-[Cys(3MeBn)-Pro-Pro-Thr-Glu-Phe-Cys]-Asp-His-Phe-Arg-Asp-NH2]	6.1 pIC50 and 7 pIC50	6.1 pIC50 and 7 pIC50
{DOTA}-[Nle]CPPTEFCDHFRD-NH2 (linker 2-8 via mXylylene; SMILES CCCC[C@H](NC(=O)CN1CCN(CC(=O)O)CCN(CC(=O)O)CCN(CC(=O)O)CC1)C(=O)N[C@H]1CSCc2cccc(c2)CSC[C@@H](C(=O)N[C@@H](CC(=O)O)C(=O)N[C@@H](Cc2c[nH]cn2)C(=O)N[C@@H](Cc2ccccc2)C(=O)N[C@@H](CCCNC(=N)N)C(=O)N[C@@H](CC(=O)O)C(N)=O)NC(=O)[C@H](Cc2ccccc2)NC(=O)[C@H](CCC(=O)O)NC(=O)[C@H]([C@@H](C)O)NC(=O)[C@@H]2CCCN2C(=O)[C@@H]2CCCN2C1=O, also called 3BP-3088) [DOTA-Nle-[Cys(3MeBn)-Pro-Pro-Thr-Glu-Phe-Cys]-Asp-His-Phe-Arg-Asp-NH2]	6.1 pIC50 and 7 pIC50	6.1 pIC50 and 7 pIC50
